In patent publication US20240025993A1, “CD19 BINDING MOLECULES AND USES THEREOF” (NOVARTIS AG, priority 2020, published 2024):
Each block holds one molecule with its values, some of them ahead of it.

How the values were obtained:
[1] = Differential scanning calorimetry, melting temperature of Fc modified anti-CD3 antibodies (Example 35); assay type: physicochemical; conditions: DSC, 1 mg/ml in PBS pH 7.4, anti-CD3 IgG1 Fc variants
Method: Calorimetric measurements were carried out on a differential scanning micro calorimeter (Nano DSC, TA instruments). The cell volume was 0.5 ml and the heating rate was 1° C./min. All proteins were used at a concentration of 1 mg/m in PBS (pH 7.4). The molar heat capacity of each protein was estimated by comparison with duplicate samples containing identical buffer from which the protein had been omitted. The partial molar heat capacities and melting curves were analyzed using standard procedure. Thermograms were baseline corrected and concentration normalized.

[2] = Aggregation propensity (% HMW) by analytical SEC of IgG1 anti-CD3 antibody and Fc variants (Example 35); assay type: physicochemical; conditions: PBS pH 7.4, anti-CD3 antibodies
Method: Size exclusion chromatography measurements were performed to evaluate the aggregation propensity (% HMW) of IgG1 antibody and Fc modified derivatives. The produced and purified anti CD3 antibodies were applied to an analytical size exclusion chromatography column (SEC 200, GE Healthcare), equilibrated with PBS buffer pH 7.4.

[3] = system: Jurkat NFAT luciferized (JNL) cells with THP-1 cells; assay: Anti-CD3 NFAT signalling assay, JNL + THP-1 cells (Example 36); assay type: cell-based, human; conditions: THP-1 cells preincubated with IFNg (100 u/mL, 48 hours)
Method: Jurkat reporter gene assay (RGA) for the nuclear factor of activated T-cells (NFAT) pathway was performed using Jurkat NFAT luciferized (JNL) cells and THP-1 cells (ATCC, TIB202). THP-1 cells express FcγRI, FcγRII, and FcγRIII. Cells were co-incubated for 6 hours at 37° C., 5% CO2 at a 5:1 effector to tumor ratio with each sample at the various concentrations depicted. An equal volume of ONE-Glo™ reagent (Promega, E6110) was added to the culture volume. Plate was shaken for 2 minutes, then incubated for an additional 8 minutes protected from light. For JNL+ THP+IFNg experiment, THP-1 cells were pre-treated with 100 u/mL IFNg for 48 hours at 37° C., 5% CO2 before co-culture. IFNg stimulation increases FcγRI expression. Luciferase activity was quantitated on the EnVision plate reader (PerkinElmer). Data was analyzed and fit to a 5 parameter-logistic curve using GraphPad Prism.

[4] = molecular target: human FcγR1A (Homo sapiens, UniProt P12314); assay: SPR binding of Fc modified anti-CD3 IgG1 antibodies (Example 34); conditions: anti-CD3 IgG1 antibody immobilized
Method: Surface plasmon resonance (SPR) experiments were performed to analyze the interaction of human activating receptors FcγR1A, FcγR3A (V158) and human C1q with IgG1 WT and antibody-Fc variants. Binding kinetics and their relative binding affinities were explored. The binding affinity is an important characteristic of an interaction between an antibody and an antigen. The equilibrium dissociation constant (KD) defines how strong the interaction is and therefore how much antibody-antigen complex is formed at equilibrium.
The knowledge of the antibody characteristics is not only essential during selection of the best therapeutic antibody candidate, but also important to understand the in vivo behavior and potentially predict cellular immune responses. […] Binding to human C1q was evaluated. […] SPR measurements were measured on a Biacore T200 (GE-Healthcare Life Sciences) controlled by Biacore T200 control software version 2.0.1. […]
The antibodies were covalently immobilized on a CM5 sensor chip whereas Fc gamma receptors or human C1q served as analytes in solution (FIG. 38). […] Zero concentration samples (blank runs) were measured for both methods to allow double-referencing during data evaluation.
Data were evaluated using the Biacore T200 evaluation software. […] In addition, the maximum response reached during the experiment was monitored. […]

[5] = system: T cells co-cultured with OCI-LY-19, Karpas422 or Toledo target cells; assay: TBM and BBM mediated T cell proliferation (Example 20); assay type: cell-based, human; conditions: OCI-LY-19, Karpas422, Toledo co-culture; E:T 1:3, 96 hrs, 2.5 nM-0.0006 nM; H variants
Method: Briefly, OCI-LY-19, Karpas422, and Toledo target cells stably expressing firefly luciferase were plated in a 96 well plate in T Cell Media (TCM) (RPMI-1640, ThermoFisher Scientific, Cat #11875-085), 10% FBS (Seradigm, Cat #1500-500), 1% L-Glutamine (Thermo Fisher Scientific, Cat #25830-081), 1% Non Essential Amino Acids (Thermo Fisher Scientific, Cat #11140-050),1% Pen/Strep (Thermo Fisher Scientific, Cat #15070063), 1% HEPES (Thermo Fisher Scientific, Cat #15630080), Sodium Pyruvate (Thermo Fisher Scientific, Cat #11360-070), 0.1% Beta-mercaptoethanol (Thermo Fisher Scientific, Cat #21985-023)]. PBMCs previously isolated and cryopreserved from 2 Leukopak donors were thawed and Pan T cells were isolated (as described earlier). Isolated T cells were labelled with 5 μM Cell Trace Violet (CTV) (Thermo Fisher Scientific, Cat #C34557) following the manufacturer's protocol and were co-cultured with target cells at an E:T ratio of 1:3. A dilution series of CD3med TSP1, CD3hi TSP1, CD3hi BSP1, CD3hi TSP1C, and blinatumomab ranging from 2.5 nM-0.0006 nM was added to cells and the plates were incubated in a 5% CO2, 37° C. incubator for 96 hrs. […]

Chain of human FcγR1A (P12314 16-374): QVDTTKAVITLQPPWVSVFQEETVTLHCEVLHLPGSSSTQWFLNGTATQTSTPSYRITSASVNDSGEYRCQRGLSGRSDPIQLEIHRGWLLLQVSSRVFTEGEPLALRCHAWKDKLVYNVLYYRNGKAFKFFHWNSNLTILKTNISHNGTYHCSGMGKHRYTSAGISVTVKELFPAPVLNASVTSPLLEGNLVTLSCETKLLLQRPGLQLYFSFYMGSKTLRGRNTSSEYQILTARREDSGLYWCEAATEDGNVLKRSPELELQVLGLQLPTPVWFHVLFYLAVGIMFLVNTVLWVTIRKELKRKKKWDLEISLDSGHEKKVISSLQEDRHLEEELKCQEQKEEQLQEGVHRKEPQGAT

- Maximum response at 100 nM hFcgammaRIA (RU) [4]: 16 RU
B1: GADAPA-IgG1: anti-CD3 IgG1 with G237A/D265A/P329A (antibody)
heavy: EVQLVESGGGLVQPGGSLKLSCAASGFTFNTYAMNWVRQASGKGLEWVGRIRSKYNNYATYYADSVKDRFTISRDDSKSTLYLQMNSLKTEDTAVYYCVRHGNFGNSYVSWFAYWGQGTLVTVSSASTKGPSVFPLAPSSKSTSGGTAALGCLVKDYFPEPVTVSWNSGALTSGVHTFPAVLQSSGLYSLSSVVTVPSSSLGTQTYICNVNHKPSNTKVDKRVEPKSCDKTHTCPPCPAPELLGAPSVFLFPPKPKDTLMISRTPEVTCVVVAVSHEDPEVKFNWYVDGVEVHNAKTKPREEQYNSTYRVVSVLTVLHQDWLNGKEYKCKVSNKALAAPIEKTISKAKGQPREPQVYTLPPSRDELTKNQVSLTCLVKGFYPSDIAVEWESNGQPENNYKTTPPVLDSDGSFFLYSKLTVDKSRWQQGNVFSCSVMHEALHNHYTQKSLSLSPGK
light: QAVVTQEPSLTVSPGGTVTLTCRSSTGAVTTSNYANWVQQKPGQAPRGLIGGTNKRAPWTPARFSGSLLGDKAALTLSGAQPEDEAEYFCALWYSNLWVFGGGTKLTVLGQPKAAPSVTLFPPSSEELQANKATLVCLISDFYPGAVTVAWKADSSPVKAGVETTTPSKQSNNKYAASSYLSLTPEQWKSHRSYSCQVTHEGSTVEKTVAPTECS
- Melting temperature (Tm) of CH2 domain [1]: 65 °C
- (%) higher molecular weight [2]: 8.0%
- NFAT activity (T-cell activation) [3]: some activity remaining

B2: CD3hi TSP1C: TBM corresponding to CD3hi TSP1 but with a lysozyme binding arm in place of the CD19 binding arm; control antibody (antibody)
heavy: QVQLQQSGPGLVKPSQTLSLTCAISGDSVSSNSAAWSWIRQSPGRGLEWLGRIYYRSKWYNDYAVSVKSRITINPDTSKNQFSLQLNSVTPEDTAVYYCARLDHRYHEDTVYPGMDVWGQGTLVTVSSASTKGPSVFPLAPSSKSTSGGTAALGCLVKDYFPEPVTVSWNSGALTSGVHTFPAVLQSSGLYSLSSVVTVPSSSLGTQTYICNVNHKPSNTKVDKRVEPKSCGGGGSGGGGSEVQLVESGGGLVQPGGSLKLSCAASGFTFNTYAMNWVRQASGKGLEWVGRIRSKYNNYATYYADSVKDRFTISRDDSKSTLYLQMNSLKTEDTAVYYCVRHGNFGNSYVSWFAYWGQGTLVTVSSGGGGSGGGGSGGGGSGGGGSQAVVTQEPSLTVSPGGTVTLTCRSSTGAVTTSNYANWVQQKPGQAPRGLIGGTNKRAPWTPARFSGSLLGDKAALTLSGAQPEDEAEYFCALWYSNLWVFGGGTKLTVLGGGGSDKTHTCPPCPAPELLGGPSVFLFPPKPKDTLMISRTPEVTCVVVAVSHEDPEVKFNWYVDGVEVHNAKTKPREEQYASTYRVVSVLTVLHQDWLNGKEYKCKVSNKALAAPIEKTISKAKGQPREPQVCTLPPSREEMTKNQVSLSCAVKGFYPSDIAVEWESNGQPENNYKTTPPVLDSDGSFFLVSKLTVDKSRWQQGNVFSCSVMHEALHNHYTQKSLSLSPGK
light: DIELTQPPSVSVAPGQTARISCSGDNLPAYTVTWYQQKPGQAPVLVIYDDSDRPSGIPERFSGSNSGNTATLTISGTQAEDEADYYCASWDPSSGVVFGGGTKLTVLGQPKAAPSVTLFPPSSEELQANKATLVCLISDFYPGAVTVAWKADSSPVKAGVETTTPSKQSNNKYAASSYLSLTPEQWKSHRSYSCQVTHEGSTVEKTVAPTECS
chain: SQQIYGVVYGNVTFHVPSNVPLKEVLWKKQKDKVAELENSEFRAFSSFKNRVYLDTVSGSLTIYNLTSSDEDEYEMESPNITDTMKFFLYVLESGGGGSDKTHTCPPCPAPELLGGPSVFLFPPKPKDTLMISRTPEVTCVVVAVSHEDPEVKFNWYVDGVEVHNAKTKPREEQYASTYRVVSVLTVLHQDWLNGKEYKCKVSNKALAAPIEKTISKAKGQPREPQVYTLPPCREEMTKNQVSLWCLVKGFYPSDIAVEWESNGQPENNYKTTPPVLDSDGSFFLYSKLTVDKSRWQQGNVFSCSVMHEALHNHYTQKSLSLSPGK
- T cell proliferation (% proliferated CD3+ T cells) [5]: did not induce any T cell proliferation
